Measured values published in patent US8088412B2, “Intralymphatic chemotherapy drug carriers” (priority 2008, dated 2012).
Where two headings read alike, the source gives them in different places. Marks after values point to notes of the source that are not given here.

Tests used:
[1] = Long-term toxicology: urine creatinine; assay type: in vivo, Sprague-Dawley rats; details: 3.3 mg/kg subcutaneous, single dose
Protocol: Each animal was administered a single bolus dose at the beginning of the 30-day study period. […] Urine samples were centrifuged at 17,000×g for 5 mins and stored in −80° C. freezer until creatinine analysis.
Urine creatinine was analyzed using the QuantiChrom™ Creatinine Assay Kit according to the manufacturer's instructions (BioAssay Systems, Hayward, Calif.). Creatinine concentration of the sample was calculated as (ODSAMPLE 5-ODSAMPLE 1) (ODSTD 5-ODSTD 1)×[STD] (mg/dL). ODSAMPLE5 ODSAMPLE1, ODSTD5, and ODSTD1 are OD510nm values of sample and standard at 5 min and 1 min, respectively.

[2] = test system: three aggressive human breast cancer cell lines; assay: Cell proliferation, Alamar blue assay, 72 hrs; assay type: cell-based; details: breast cancer cells in culture
Protocol: The 10% w/w conjugate was applied to cells, and 72 hrs later, cell proliferation was determined using the Alamar blue assay (Invitrogen Corp.). […] Similarly, cisplatin conjugates were applied to breast cancer cells in culture. […] This may be due release of anticancer drugs from nanocarriers into the culture media, followed by uptake as with free drug.

[3] = parameters: species or system Sprague-Dawley rats; details: rat, in vivo, sc
Protocol: Sprague-Dawley rats (female, 200-250 g) were cannulated in the left jugular vein under isoflurane and allowed to recover overnight. […] Subcutaneous injections were given in the uppermost right mammary fatpad of the animal. Whole blood was withdrawn (100 μl) from the cannula at 0, 5 min, 0.5, 1, 2, 4, 6, 12, 24, 48 and 96 hrs after dosing and placed into 2-ml centrifuge tubes pretreated with heparin. The cannula was washed before and after withdrawal with saline and then heparin locked. The whole blood was centrifuged at 17,000×g for 5 mins, and the plasma was frozen at −80° C. until analysis. Animals were euthanized […]. The right ipsilateral axilla nodes (treated side), left contralateral axilla nodes (control side), and major organs (liver, kidneys, heart, spleen, lungs, brain, muscle, bladder) were excised; washed with 0.9% saline; and stored at −80° C. until analysis. […] Typically, 50 mg of tissue sample was digested using 1.5 ml of 6.7% nitric acid for 2 hours at 80° C. After digestion, samples were homogenized (Tissue Tearor; BioSpec Products Inc., Bartlesville, Okla.) and centrifuged. The supernatant and plasma samples were analyzed by AAS as described in the Synthesis section.
In vitro release samples (n=3) and plasma samples (n=5) were diluted 200-fold and 10-fold, respectively, with 0.1% nitric acid for analysis. […]

[4] = Tissue distribution after subcutaneous cisplatin or cisplatin-HA into right mammary fat pad; assay type: in vivo, Sprague-Dawley rats
Protocol: Animals were allowed to recover with access to food and water. […] Organs and tissues were washed with 0.9% saline and frozen (−80° C.) until analysis. Plasma was separated by centrifugation from whole blood and frozen (−80° C.).
In vitro release samples (n=3) and plasma samples (n=5) were diluted 200-fold and 10-fold, respectively, with 0.1% nitric acid for analysis. […] Lymph nodes were processed similarly using 10 mg of tissue. After digestion, samples were homogenized (Tissue Tearor, BioSpec Products Inc., Bartlesville, Okla.). All samples were centrifuged (17 000×g, 20 min), and the supernate used for analysis.
Analysis was performed on a Varian SpectrAA GTA-110 with graphite furnace and partition tubes. Samples (21 μL) were injected using the autosampler, followed by 19 μL of 0.1% nitric acid. […] The furnace program was as follows: ramp 25 to 80° C., hold 2 s, ramp to 120° C., hold 10 s, ramp to 1000° C., hold 5 s, ramp to 2700° C., hold 2 s, cool to 25° C. over 20 s. The graphite partition tube was cleaned every 40 samples by baking at 2800° C. for 7 s. Argon was used as the injection and carrier gas.

MCF7 = assay: In vitro cell toxicity (DMEM, resazurin blue, 72 hrs); assay type: cell-based, human
Protocol: (§1) Cell lines were seeded into 96-well plates (5000 cells/well) in DMEM medium supplemented with 5% FBS and 1% penicillin/streptomycin.

MDA-MB-231 = assay: as above; assay type: cell-based, human
Protocol: as §1

[PtCl(H2O)(NH3)2]OOCO-HA [HA-cisplatin]
urine creatinine levels [1]: remained near pre-dosing levels | anticancer activity compared with free cisplatin [2]: not significantly different from free cisplatin | delay before plasma platinum peaked and plateaued-off [3]: 2 h | AUC in the right (draining axillary) lymph node, greater than cisplatin in saline ([4]; 96 hrs, subcutaneous, p=0.0001): 74% | AUC (0-96 hrs) ([4]; Bladder, subcutaneous into right mammary fatpad of female rats): 194.5 µg·h/g | AUC (0-96 hrs) ([4]; Brain, subcutaneous into right mammary fatpad): 343.7 µg·h/g | AUC (0-96 hrs) ([4]; Heart, subcutaneous into right mammary fatpad): 465.3 µg·h/g | AUC (0-96 hrs) ([4]; Kidneys, subcutaneous into right mammary fatpad): 668.6 µg·h/g | AUC (0-96 hrs) ([4]; Left lymph node (LLN), subcutaneous into right mammary fatpad): 413.4 µg·h/g | AUC (0-96 hrs) ([4]; Liver, subcutaneous into right mammary fatpad): 495.0 µg·h/g | AUC (0-96 hrs) ([4]; Lungs, subcutaneous into right mammary fatpad): 347.3 µg·h/g | AUC (0-96 hrs) ([4]; Muscle, subcutaneous into right mammary fatpad): 262.1 µg·h/g | AUC (0-96 hrs) ([4]; Plasma, subcutaneous into right mammary fatpad): 186.1 µg·h/g | AUC (0-96 hrs) ([4]; Right lymph node (RLN), subcutaneous into right mammary fatpad, p < 0.05): 776.0 ^† μg · hr/g | AUC (0-96 hrs) ([4]; Spleen, subcutaneous into right mammary fatpad): 383.4 µg·h/g | distribution of cisplatin to other organs vs cisplatin ([4]; over the study period): not significantly different over the study period | AUC in the non-draining left lymph node (LLN) vs cisplatin in saline ([4]; p=0.12): not significantly different from cisplatin in saline | plasma AUC, difference between cisplatin-HA and cisplatin ([4]; p=0.13): not a significant difference | serum Cmax ([4]; subcutaneous, 3.3 mg/kg cisplatin basis, FIG. 10B): less than 3 micrograms/mL | tolerability in rodents ([4]; subcutaneous, after 96 hours): well tolerated in rodents with no signs of injection site morbidity or major organ toxicity after 96 hours | IC50 (MCF7; MCF-7, cisplatin basis): 7 µg/mL | IC50 (MCF7; MCF-7, read-out: IC50): 23 µM | IC50 (MDA-MB-231; cisplatin basis): 7 µg/mL | IC50 (MDA-MB-231; read-out: IC50): 23 µM
